For this assay, the target named is T1, Hop2-R176A–Mnd1 mutant complex (mouse, UniProt O35047 1-217; Q8K396 1-205, R176A).
T1 sequence 1: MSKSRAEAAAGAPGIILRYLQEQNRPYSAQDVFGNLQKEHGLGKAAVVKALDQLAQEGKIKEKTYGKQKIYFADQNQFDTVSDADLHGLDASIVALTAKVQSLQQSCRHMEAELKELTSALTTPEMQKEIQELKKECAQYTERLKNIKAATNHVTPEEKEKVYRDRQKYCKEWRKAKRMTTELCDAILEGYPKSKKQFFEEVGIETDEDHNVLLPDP
T1 sequence 2: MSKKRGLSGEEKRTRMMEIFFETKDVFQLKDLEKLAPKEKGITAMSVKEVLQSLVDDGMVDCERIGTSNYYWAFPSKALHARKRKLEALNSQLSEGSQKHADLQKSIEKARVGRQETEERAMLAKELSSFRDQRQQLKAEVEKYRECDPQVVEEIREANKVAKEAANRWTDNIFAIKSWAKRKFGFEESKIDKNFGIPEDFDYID
In words: pull-down.

B1: Human DMC1 (natural protein)
chain: MKEDQVVAEEPGFQDEEESLFQDIDLLQKHGINVADIKKLKSVGICTIKGIQMTTRRALCNVKGLSEAKVDKIKEAANKLIEPGFLTAFEYSEKRKMVFHITTGSQEFDKLLGGGIESMAITEAFGEFRTGKTQLSHTLCVTAQLPGAGGYPGGKIIFIDTENTFRPDRLRDIADRFNVDHDAVLDNVLYARAYTSEHQMELLDYVAAKFHEEAGIFKLLIIDSIMALFRVDFSGRGELAERQQKLAQMLSRLQKISEEYNVAVFVTNQMTADPGATMTFQADPKKPIGGHILAHASTTRISLRKGRGELRIAKIYDSPEMPENEATFAITAGGIGDAKE
Turning to B1, the binding result is recorded as “binds”.
